Experimental data reported in PMC4766014, “Structures of Two Melanoma-Associated Antigens Suggest Allosteric Regulation of Effector Binding” (PLoS ONE, 2016).

Target: the molecule itself
Assay: AUC; sedimentation velocity, 4°C, 45,000 rpm, 10 mM HEPES pH 7.5, 150 mM NaCl, 0.5 mM TCEP; MAGE-A3 at 0.75 mg/ml, MAGE-A4 at 0.5 mg/ml; c(s) analysis with SEDFIT

Protein | stoichiometry N
MAGE-A3 C-terminally truncated construct, residues 104-294 (domain or fragment, human, UniProt P43357 104-294, looked up, MAGE-A3, human, residues 104-294 (lacks the final 20 residues of the crystallized construct); also called MAGE-A3^104-294) EFQAALSRKVAELVHFLLLKYRAREPVTKAEMLGSVVGNWQYFFPVIFSKASSSLQLVFGIELMEVDPIGHLYIFATCLGLSYDGLLGDNQIMPKAGLLIIVLAIIAREGDCAPEEKIWEELSVLEVFEGREDSILGDPKKLLTQHFVQENYLEYRQVPGSDPACYEFLWGPRALVETSYVKVLHHMVKIS | 2
MAGE-A3 MHD domain, residues 104-314 (domain or fragment, human, UniProt P43357 104-314, looked up, MAGE-A3, human, MAGE homology domain (MHD), residues 104-314; Dimer in solution by AUC and SAXS (dimer B interface); The final 4 residues are disordered in the crystal structure; also called MAGE-A3^104-314; melanoma associated antigen A3) EFQAALSRKVAELVHFLLLKYRAREPVTKAEMLGSVVGNWQYFFPVIFSKASSSLQLVFGIELMEVDPIGHLYIFATCLGLSYDGLLGDNQIMPKAGLLIIVLAIIAREGDCAPEEKIWEELSVLEVFEGREDSILGDPKKLLTQHFVQENYLEYRQVPGSDPACYEFLWGPRALVETSYVKVLHHMVKISGGPHISYPPLHEWVLREGEE | 2
